This is an account of results in publication PMC7289862, “Real-time tracking reveals catalytic roles for the two DNA binding sites of Rad51” (Nature Communications, 2019).

Series [1] deals with T1, Rad51-S2 (Schizosaccharomyces pombe, UniProt P36601 1-365, R324A;K334A).
T1 sequence: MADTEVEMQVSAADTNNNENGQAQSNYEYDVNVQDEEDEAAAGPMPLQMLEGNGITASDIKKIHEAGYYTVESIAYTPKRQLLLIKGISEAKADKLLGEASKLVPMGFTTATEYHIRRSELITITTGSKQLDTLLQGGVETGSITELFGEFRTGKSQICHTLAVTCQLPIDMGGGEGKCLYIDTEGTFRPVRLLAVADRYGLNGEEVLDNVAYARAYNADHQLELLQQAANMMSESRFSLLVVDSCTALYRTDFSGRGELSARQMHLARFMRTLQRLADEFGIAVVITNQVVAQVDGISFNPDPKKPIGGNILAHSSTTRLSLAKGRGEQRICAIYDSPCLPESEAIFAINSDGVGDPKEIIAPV
The experiment in a line: fluorescence anisotropy; 1 mM ATP, 3 mM MgCl2; Hill n 2.25; 30 mM HEPES-KOH pH 7.5, 100 mM KCl, 3 mM MgCl2, 1 mM DTT, 5% glycerol, 1 mM ATP, 25 C (EMSA: 2 mM ATP, 37 C, then 0.2% glutaraldehyde). To be noted: protein: recombinant; label: 5' TAMRA.

Series [2] has as its target T2, Rad51-L2 (Schizosaccharomyces pombe, UniProt P36601 1-365, V295A).
T2 sequence: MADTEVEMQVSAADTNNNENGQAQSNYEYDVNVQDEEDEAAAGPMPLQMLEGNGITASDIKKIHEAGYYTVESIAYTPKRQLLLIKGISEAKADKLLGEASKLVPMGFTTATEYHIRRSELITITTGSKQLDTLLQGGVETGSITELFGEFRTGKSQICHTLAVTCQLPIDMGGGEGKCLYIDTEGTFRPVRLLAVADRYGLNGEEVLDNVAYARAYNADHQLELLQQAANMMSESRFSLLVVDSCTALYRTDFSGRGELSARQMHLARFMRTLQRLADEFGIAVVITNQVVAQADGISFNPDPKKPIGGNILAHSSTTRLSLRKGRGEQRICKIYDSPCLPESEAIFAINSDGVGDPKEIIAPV
The experiment in a line: fluorescence anisotropy; 1 mM ATP, 3 mM MgCl2; Hill n 2.59; 30 mM HEPES-KOH pH 7.5, 100 mM KCl, 3 mM MgCl2, 1 mM DTT, 5% glycerol, 1 mM ATP, 25 C (EMSA: 2 mM ATP, 37 C, then 0.2% glutaraldehyde). To be noted: protein: recombinant; label: 5' TAMRA.

The target in series [3] is T3, Rad51 wild-type (Schizosaccharomyces pombe, UniProt P36601 1-365).
T3 sequence: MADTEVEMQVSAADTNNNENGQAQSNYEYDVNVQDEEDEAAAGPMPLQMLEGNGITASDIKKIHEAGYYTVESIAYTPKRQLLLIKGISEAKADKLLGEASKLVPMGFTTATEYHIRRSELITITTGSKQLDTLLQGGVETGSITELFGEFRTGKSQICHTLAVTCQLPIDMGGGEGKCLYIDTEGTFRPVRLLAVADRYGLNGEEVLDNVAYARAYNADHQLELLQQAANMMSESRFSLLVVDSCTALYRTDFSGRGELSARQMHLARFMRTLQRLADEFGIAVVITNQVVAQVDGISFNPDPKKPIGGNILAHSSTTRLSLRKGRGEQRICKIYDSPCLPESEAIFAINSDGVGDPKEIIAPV
The series can be described thus: fluorescence anisotropy; 1 mM ATP, 3 mM MgCl2; Hill n 2.86; 30 mM HEPES-KOH pH 7.5, 100 mM KCl, 3 mM MgCl2, 1 mM DTT, 5% glycerol, 1 mM ATP, 25 C (EMSA: 2 mM ATP, 37 C, then 0.2% glutaraldehyde). To be noted: protein: recombinant; label: 5' TAMRA. For orientation: In fluorescence polarisation assays a small probe gives low polarisation when free and higher when bound to something large.

Series [4] deals with T4, Rad51-L1 (Schizosaccharomyces pombe, UniProt P36601 1-365, R257A).
T4 sequence: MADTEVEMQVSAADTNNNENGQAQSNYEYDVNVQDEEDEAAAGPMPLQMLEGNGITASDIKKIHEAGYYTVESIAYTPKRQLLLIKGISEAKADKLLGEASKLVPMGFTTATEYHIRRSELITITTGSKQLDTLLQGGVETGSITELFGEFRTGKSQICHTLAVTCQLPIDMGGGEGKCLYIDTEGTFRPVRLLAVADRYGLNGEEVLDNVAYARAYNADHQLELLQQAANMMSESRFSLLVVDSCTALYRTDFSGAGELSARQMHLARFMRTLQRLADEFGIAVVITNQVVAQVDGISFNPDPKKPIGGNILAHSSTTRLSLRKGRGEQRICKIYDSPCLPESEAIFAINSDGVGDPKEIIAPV
The experiment in a line: fluorescence anisotropy; 1 mM ATP, 3 mM MgCl2; Hill n 2.94; 30 mM HEPES-KOH pH 7.5, 100 mM KCl, 3 mM MgCl2, 1 mM DTT, 5% glycerol, 1 mM ATP, 25 C (EMSA: 2 mM ATP, 37 C, then 0.2% glutaraldehyde). To be noted: protein: recombinant; label: 5' TAMRA.

Series [5] addresses T2, Rad51-L2. The experiment in a line: fluorescence anisotropy; 1 mM ATP, 3 mM MgCl2; Hill n 1.80; 30 mM HEPES-KOH pH 7.5, 100 mM KCl, 3 mM MgCl2, 1 mM DTT, 5% glycerol, 1 mM ATP, 25 C (EMSA: 2 mM ATP, 37 C, then 0.2% glutaraldehyde). To be noted: protein: recombinant; label: 5' TAMRA on strand 1; blunt.
Series [6] concerns the target T3, Rad51 wild-type. The experiment in a line: fluorescence anisotropy; 1 mM ATP, 3 mM MgCl2; Hill n 1.99; main text prints 2.79 uM; 30 mM HEPES-KOH pH 7.5, 100 mM KCl, 3 mM MgCl2, 1 mM DTT, 5% glycerol, 1 mM ATP, 25 C (EMSA: 2 mM ATP, 37 C, then 0.2% glutaraldehyde). To be noted: protein: recombinant; label: 5' TAMRA on strand 1; blunt.

B1: [TAMRA]dT72 (ssDNA)
DNA: TTTTTTTTTTTTTTTTTTTTTTTTTTTTTTTTTTTTTTTTTTTTTTTTTTTTTTTTTTTTTTTTTTTTTTTT
For B1, the Kd was 0.895 ± 0.055 µM in series [1], 0.308 ± 0.019 µM in series [2], 0.358 ± 0.025 µM in series [3] and 0.664 ± 0.018 µM in series [4].

B2: [TAMRA]16A(-)_72 bp duplex (dsDNA)
DNA 1: AAATGAACATAAAGTAAATAAGTATAAGGATAATACAAAATAAGTAAATGAATAAACATAGAAAATAAAGTA
DNA 2: TACTTTATTTTCTATGTTTATTCATTTACTTATTTTGTATTATCCTTATACTTATTTACTTTATGTTCATTT
As for B2, the Kd in series [5] turned out to be 3.52 ± 0.31 µM; in series [6], 2.61 ± 0.2 µM.

For orientation: Kd means the concentration at which binding is half-saturated.
